Consider two proteins from PMC6321125, “Characterization of a Carbonyl Reductase from Rhodococcus erythropolis WZ010 and Its Variant Y54F for Asymmetric Synthesis of (S)-N-Boc-3-Hydroxypiperidine” (Molecules, 2018).

What all share (assay): purified protein
Substrate in data set [1]: CC(C)O
The note with it: apparent, 0.4 mM NAD+, standard assay 50 mM CAPSO pH 10.0, 50 °C.

Substrate in data set [2]: CC(C)(C)OC(=O)N1CCCC(=O)C1
The format is biochemical, Rhodococcus erythropolis. The note with it: apparent, 0.4 mM NADH, standard assay 50 mM PIPES pH 6.0, 60 °C.

Substrate in data set [3]: CC(C)=O
The format is biochemical, Rhodococcus erythropolis. To be noted: apparent, 0.4 mM NADH, standard assay 50 mM PIPES pH 6.0, 60 °C.

Substrate in data set [4]: CCCCCCC(C)=O
The format is biochemical, Rhodococcus erythropolis. The note with it: apparent, 0.4 mM NADH, standard assay 50 mM PIPES pH 6.0, 60 °C.

Substrate in data set [5]: CCCCCCC(C)O
The format is biochemical, Rhodococcus erythropolis. To be noted: apparent, 0.4 mM NAD+, standard assay 50 mM CAPSO pH 10.0, 50 °C.

B1: ReCR (Rhodococcus erythropolis; G336R/K233S/K67R/N94S/Q110S) (protein)
chain: MKAIQYTRIGAEPELTEIPKPEPGPGEVLLEVTAAGVCHSDDFIMSLPEEQYTYGLPLTLGHEGAGRVAAVGEGVEGLDIGTNVVVYGPWGCGSCWHCSQGLENYCSRASELGINPPGLGAPGALAEFMIVDSPRHLVPIGDLDPVKTVPLTDAGLTPYHAIKRSLPKLRGGSYAVVIGTGGLGHVAIQLLRHLSAATVIALDVSADKLELATKVGAHEVVLSDKDAAENVRSITGSQGAALVLDFVGYQPTIDTAMAVAGVGSDVTIVGIGDGQAHAKVGFFQSPYEASVTVPYWGARNELIELIDLAHAGIFDIAVETFSLDNGAEAYRRLAARTLSGRAVVVPGL
Take B1: the Km (usually the substrate concentration at which the rate is half of its maximum) in data set [1] came out at 1460 ± 60 µM; in data set [2], 1740 ± 80 µM; in data set [3] it was 46060 ± 2620 µM; in data set [4], 3290 ± 50 µM; in data set [5] it was 4940 ± 450 µM. Moreover, the Vmax – broadly, the top rate of the reaction or transport when substrate is in excess – in data set [1] was determined as 23.5 µmol/min/mg; in data set [2], 104 µmol/min/mg; in data set [3], 66.3 µmol/min/mg; in data set [4] it was 236 µmol/min/mg; in data set [5], 107 µmol/min/mg. Further, the turnover number (kcat) (commonly the maximal rate divided by the concentration of active sites) in data set [1] amounted to 14.2 s⁻¹; in data set [2] it was 62.6 ± 1.49 s⁻¹; in data set [3], 40.1 ± 1.98 s⁻¹; in data set [4], 142 ± 3.11 s⁻¹; in data set [5], 64.4 ± 1.66 s⁻¹. Also, the kcat/Km (usually the turnover number divided by the Michaelis constant) was found to be 9740 M⁻¹ s⁻¹ in data set [1]; 36000 ± 860 M⁻¹ s⁻¹ in data set [2]; 870 ± 40 M⁻¹ s⁻¹ in data set [3]; 43300 ± 950 M⁻¹ s⁻¹ in data set [4]; 13000 ± 340 M⁻¹ s⁻¹ in data set [5].

B2: ReCR (Rhodococcus erythropolis; G336R/K233S/K67R/N94S/Q110S/Y54F) (protein)
chain: MKAIQYTRIGAEPELTEIPKPEPGPGEVLLEVTAAGVCHSDDFIMSLPEEQYTFGLPLTLGHEGAGRVAAVGEGVEGLDIGTNVVVYGPWGCGSCWHCSQGLENYCSRASELGINPPGLGAPGALAEFMIVDSPRHLVPIGDLDPVKTVPLTDAGLTPYHAIKRSLPKLRGGSYAVVIGTGGLGHVAIQLLRHLSAATVIALDVSADKLELATKVGAHEVVLSDKDAAENVRSITGSQGAALVLDFVGYQPTIDTAMAVAGVGSDVTIVGIGDGQAHAKVGFFQSPYEASVTVPYWGARNELIELIDLAHAGIFDIAVETFSLDNGAEAYRRLAARTLSGRAVVVPGL
Regarding B2, the Km is 1030 ± 50 µM in data set [1]; 1730 ± 50 µM in data set [2]; 37320 ± 560 µM in data set [3]; 3110 ± 120 µM in data set [4]; 1370 ± 80 µM in data set [5]. The Vmax came out at 35.3 µmol/min/mg in data set [1]; 141 µmol/min/mg in data set [2]; 90.5 µmol/min/mg in data set [3]; 274 µmol/min/mg in data set [4]; 128 µmol/min/mg in data set [5]. Besides, the kcat in data set [1] was 21.3 s⁻¹; in data set [2] it was 85.1 ± 3.94 s⁻¹; in data set [3], 54.7 ± 1.02 s⁻¹; in data set [4] it was 165 ± 4.58 s⁻¹; in data set [5] it was 77.5 ± 1.88 s⁻¹. Further, the catalytic efficiency (kcat/Km) in data set [1] came out at 20700 M⁻¹ s⁻¹; in data set [2], 49200 ± 2280 M⁻¹ s⁻¹; in data set [3], 1470 ± 30 M⁻¹ s⁻¹; in data set [4], 53200 ± 1470 M⁻¹ s⁻¹; in data set [5] it was 56600 ± 1370 M⁻¹ s⁻¹.
